Assay results taken from patent publication US20220281931.

Biological target: Strep II-Avi BCL6^5-360

B1: Flag-SIAH1^FL (protein)
chain: MSRQTATALPTGTSKCPPSQRVPALTGTTASNNDLASLFECPVCFDYVLPPILQCQSGHLVCSNCRPKLTCCPTCRGPLGSIRNLAMEKVANSVLFPCKYASSGCEITLPHTEKADHEELCEFRPYSCPCPGASCKWQGSLDAVMPHLMHQHKSITTLQGEDIVFLATDINLPGAVDWVMMQSCFGFHFMLVLEKQEKYDGHQQFFAIVQLIGTRKQAENFAYRLELNGHRRRLTWEATPRSIHEGIATAIMNSDCLVFDTSIAQLFAENGNLGINVTISMC
  in vitro ubiquitination (western blot, Strep tag II antibody): BCL6 is a substrate for SIAH1 (FIG. 10D), and that the rate and magnitude of ubiquitination is accelerated by BI-3802 (FIG. 4B)
